PMC10303457 (2023)
No end group written: not given here.

Assays:
Experiment in all cases: FP
[1] = molecular target: T1, Human IMPα3 aa 64–521 (lacking the IMPβ binding domain) (human, UniProt O00629 64-521)
T1 chain: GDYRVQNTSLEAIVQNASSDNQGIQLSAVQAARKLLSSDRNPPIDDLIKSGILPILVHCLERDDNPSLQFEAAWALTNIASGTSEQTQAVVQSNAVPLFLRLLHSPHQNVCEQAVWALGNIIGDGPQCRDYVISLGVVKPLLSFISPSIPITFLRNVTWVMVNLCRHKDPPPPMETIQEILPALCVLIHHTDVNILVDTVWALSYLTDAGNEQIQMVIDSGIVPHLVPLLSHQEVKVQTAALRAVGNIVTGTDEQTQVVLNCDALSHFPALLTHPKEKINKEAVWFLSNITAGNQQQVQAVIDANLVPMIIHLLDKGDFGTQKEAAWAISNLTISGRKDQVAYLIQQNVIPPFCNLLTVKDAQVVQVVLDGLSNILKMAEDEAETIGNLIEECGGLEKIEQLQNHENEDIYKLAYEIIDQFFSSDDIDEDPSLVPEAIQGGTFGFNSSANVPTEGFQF

[2] = molecular target: Human IMPα1 aa 71–529 (lacking the IMPβ binding domain) (human, UniProt P52292 71-529)
[3] = molecular target: Human IMPα5 aa 74–538 (lacking the IMPβ binding domain) (human, UniProt P52294 74-538)
Human IMPα5 aa 74–538 (lacking the IMPβ binding domain), sequence (P52294 74-538): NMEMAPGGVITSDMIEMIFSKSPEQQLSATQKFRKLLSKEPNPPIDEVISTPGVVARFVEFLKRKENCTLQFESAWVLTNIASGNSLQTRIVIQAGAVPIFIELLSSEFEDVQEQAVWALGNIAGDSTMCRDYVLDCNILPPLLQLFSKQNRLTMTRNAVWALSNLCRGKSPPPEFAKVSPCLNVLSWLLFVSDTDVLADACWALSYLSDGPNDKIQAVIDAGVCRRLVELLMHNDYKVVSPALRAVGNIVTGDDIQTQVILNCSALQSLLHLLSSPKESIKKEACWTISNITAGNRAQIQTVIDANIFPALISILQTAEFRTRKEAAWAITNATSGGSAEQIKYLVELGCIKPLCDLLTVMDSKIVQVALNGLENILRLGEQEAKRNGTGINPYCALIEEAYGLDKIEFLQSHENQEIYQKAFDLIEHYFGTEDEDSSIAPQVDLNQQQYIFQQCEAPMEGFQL

Row | Binder | Kd [1] [nM] | Kd [2] [nM] | Kd [3] [nM]
1 | VRRAGKYYSVEYCKRKID (also: FITC-labelled, site not given here) [FITC-labelled HeV M NLS2 peptide] | 11500 |  | 
2 | SGKRKKIRTIAAYPLGVGKS (also: FITC-labelled, site not given here) [FITC-labelled HeV M NLS1 peptide] | 2470 | 560 | 1470
